# Test results taken from paper PMC8119897.
# Legend:
# [1] = biological target: Fructose-1,6-bisphosphate aldolase FBA^C of Bacillus methanolicus MGA3 (chromosomally encoded) (Bacillus methanolicus MGA3); assay: crystal structure; FBA^C crystallised by sitting-drop vapor diffusion at 20°C; reservoir 0.1 M sodium acetate trihydrate pH 4.5, 2.0 M ammonium sulfate; molecular replacement with PDB 3Q94
# [2] = biological target: Fructose-1,6-bisphosphate aldolase FBA^P of Bacillus methanolicus MGA3 (encoded on plasmid pBM19) (Bacillus methanolicus MGA3); assay: crystal structure; FBA^P crystallised by sitting-drop vapor diffusion at 8°C; reservoir 20% PEG 4000, 0.2 M imidazole/malate buffer pH 6; molecular replacement with PDB 3Q94
stoichiometry N [1],stoichiometry N [2],Substance
4,,"Fructose-1,6-bisphosphate aldolase FBA^C of Bacillus methanolicus MGA3 (chromosomally encoded) (enzyme)"
,4,"Fructose-1,6-bisphosphate aldolase FBA^P of Bacillus methanolicus MGA3 (encoded on plasmid pBM19) (enzyme)"
